# T1: FLAG-PKD1 (protein kinase D1) (UniProt Q15139 1-912)
# T1 sequence (looked up): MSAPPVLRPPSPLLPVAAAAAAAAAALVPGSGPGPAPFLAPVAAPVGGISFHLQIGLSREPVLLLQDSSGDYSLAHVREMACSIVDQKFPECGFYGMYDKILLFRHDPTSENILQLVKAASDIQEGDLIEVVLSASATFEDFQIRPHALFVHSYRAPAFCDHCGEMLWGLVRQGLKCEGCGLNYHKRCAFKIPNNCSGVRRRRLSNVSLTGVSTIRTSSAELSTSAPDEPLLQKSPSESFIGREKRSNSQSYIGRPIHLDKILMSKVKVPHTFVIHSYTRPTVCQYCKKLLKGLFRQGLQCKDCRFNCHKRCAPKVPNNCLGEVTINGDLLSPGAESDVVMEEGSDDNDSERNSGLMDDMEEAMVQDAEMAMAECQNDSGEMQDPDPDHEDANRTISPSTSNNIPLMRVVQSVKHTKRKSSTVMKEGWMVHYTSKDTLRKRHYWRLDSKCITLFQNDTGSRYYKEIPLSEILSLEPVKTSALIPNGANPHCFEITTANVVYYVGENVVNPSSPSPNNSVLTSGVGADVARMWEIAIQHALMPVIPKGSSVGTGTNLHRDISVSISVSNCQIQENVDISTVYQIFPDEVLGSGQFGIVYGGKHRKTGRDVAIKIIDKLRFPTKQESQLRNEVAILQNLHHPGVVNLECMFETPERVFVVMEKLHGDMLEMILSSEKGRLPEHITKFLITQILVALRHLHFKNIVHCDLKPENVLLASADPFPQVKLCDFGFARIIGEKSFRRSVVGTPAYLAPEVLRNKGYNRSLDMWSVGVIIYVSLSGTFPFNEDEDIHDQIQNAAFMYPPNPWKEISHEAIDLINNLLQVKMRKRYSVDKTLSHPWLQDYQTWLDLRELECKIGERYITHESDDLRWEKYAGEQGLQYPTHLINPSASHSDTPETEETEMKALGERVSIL
# B1: GST-CBX8 (natural protein, UniProt Q9HC52 1-389, looked up)
# chain: MELSAVGERVFAAEALLKRRIRKGRMEYLVKWKGWSQKYSTWEPEENILDARLLAAFEEREREMELYGPKKRGPKPKTFLLKAQAKAKAKTYEFRSDSARGIRIPYPGRSPQDLASTSRAREGLRNMGLSPPASSTSTSSTCRAEAPRDRDRDRDRDRERDRERERERERERERERERERGTSRVDDKPSSPGDSSKKRGPKPRKELPDPSQRPLGEPSAGLGEYLKGRKLDDTPSGAGKFPAGHSVIQLARRQDSDLVQCGVTSPSSAEATGKLAVDTFPARVIKHRAAFLEAKGQGALDPNGTRVRHGSGPPSSGGGLYRDMGAQGGRPSLIARIPVARILGDPEEESWSPSLTNLEKVVVTDVTSNFLTVTIKESNTDQGFFKEKR
# Molecular target: T1, FLAG-PKD1 (protein kinase D1)
# Experiment: pull-down
binder,measurement,value
B1,binding result,binds
